For orientation: Kd means the concentration at which binding is half-saturated.

This is an account of results in article PMC5855864.

Holding throughout (assay): SPR
A general note: In SPR one partner is held on a chip, and binding of the other changes the refractive index at the surface.

One data set concerns the target Protein A, recombinant (UniProt P38507). The following applies: aptamer immobilized; 100 mM NaCl, 20 mM Tris-HCl pH 7.6, 10 mM MgCl2, 5 mM KCl, 1 mM CaCl2, 0.005% surfactant P20, 21 °C (SPR Biacore X100).
Data set [1] deals with Protein A, native (Staphylococcus aureus) (UniProt P38507). The following applies: aptamer immobilized; 100 mM NaCl, 20 mM Tris-HCl pH 7.6, 10 mM MgCl2, 5 mM KCl, 1 mM CaCl2, 0.005% surfactant P20, 21 °C (SPR Biacore X100).
The target of data set [2] is Protein A, native, biotinylated (Staphylococcus aureus) (UniProt P38507). The following applies: protein immobilized, aptamer as analyte; 100 mM NaCl, 20 mM Tris-HCl pH 7.6, 10 mM MgCl2, 5 mM KCl, 1 mM CaCl2, 0.005% surfactant P20, 21 °C (SPR Biacore X100).

For “ATACCAGCTTATTCAATTAGCAACATGAGGGGGATGGAGGGGGTGGGTTCTCTCGGCTACAATCGTAATCAGTTAG [PA-C4]”, in the data set with Protein A, recombinant, the Kd was determined as 222 nM.
Regarding “ATACCAGCTTATTCAATTGGGCACCACGGGAGTCGGCCACATTTGGAGTTGTTTTTGCACAATCGTAATCAGTTAG [PA#14/89 (3'-biotin)]”, the Kd came out at 467 nM in data set [1] and 2660 nM with Protein A, recombinant.
Taken in the same sequence, the figures for “ATACCAGCTTATTCAATTAGCAACATGAGGGGGATAGAGGGGGTGGGTTCTCTCGGCTACAATCGTAATCAGTTAG [PA#2/8 (3'-biotin)]” were 20 nM and 92 nM.
As to “ATACCAGCTTATTCAATTAGCAACATGAGGGGGATAGAGGGGGTGGGTTCTCTCGGCTACAATCGTAATCAGTTAG [PA#2/8 (unmodified)]”, the equilibrium dissociation constant (Kd) in data set [2] was 3730 nM.
In the case of “ATACCAGCTTATTCAATTAGGCCAGATGAGGGGTGCCCATGGCGGGGTGGCTGCTCCAACAATCGTAATCAGTTAG [PA-C8 (3'-biotin)]”, the Kd in data set [1] amounted to 99 nM; with Protein A, recombinant it was 443 nM.
Take “ATACCAGCTTATTCAATTAGCAACATGAGGGGGGATAGAGGGGGTGGGTTCTCTCGGCTACAATCGTAATCAGTTAG [PA-C7]”: the Kd with Protein A, recombinant stood at 1610 nM.
On to “ATACCAGCTTATTCAATTGCGCACCACGGGAGTTGGCCACATTTGGAGTTGTTTTTGCACAATCGTAATCAGTTAG [PA-C10 (3'-biotin)]”, for which the dissociation constant Kd is 588 nM in data set [1] and 2730 nM in the data set with Protein A, recombinant.
